The values that follow come from patent JP2014141434A (dated 2014).

The target of this test is T1, N末端FLAG−tag付加型カニクイザルROBO4 cynoROBO4−1 (cynomolgus monkey, UniProt Q8WZ75 28-1007 (human entry)).
T1 construct: also called pCI−FLAG−cynoROBO4−1
T1 chain: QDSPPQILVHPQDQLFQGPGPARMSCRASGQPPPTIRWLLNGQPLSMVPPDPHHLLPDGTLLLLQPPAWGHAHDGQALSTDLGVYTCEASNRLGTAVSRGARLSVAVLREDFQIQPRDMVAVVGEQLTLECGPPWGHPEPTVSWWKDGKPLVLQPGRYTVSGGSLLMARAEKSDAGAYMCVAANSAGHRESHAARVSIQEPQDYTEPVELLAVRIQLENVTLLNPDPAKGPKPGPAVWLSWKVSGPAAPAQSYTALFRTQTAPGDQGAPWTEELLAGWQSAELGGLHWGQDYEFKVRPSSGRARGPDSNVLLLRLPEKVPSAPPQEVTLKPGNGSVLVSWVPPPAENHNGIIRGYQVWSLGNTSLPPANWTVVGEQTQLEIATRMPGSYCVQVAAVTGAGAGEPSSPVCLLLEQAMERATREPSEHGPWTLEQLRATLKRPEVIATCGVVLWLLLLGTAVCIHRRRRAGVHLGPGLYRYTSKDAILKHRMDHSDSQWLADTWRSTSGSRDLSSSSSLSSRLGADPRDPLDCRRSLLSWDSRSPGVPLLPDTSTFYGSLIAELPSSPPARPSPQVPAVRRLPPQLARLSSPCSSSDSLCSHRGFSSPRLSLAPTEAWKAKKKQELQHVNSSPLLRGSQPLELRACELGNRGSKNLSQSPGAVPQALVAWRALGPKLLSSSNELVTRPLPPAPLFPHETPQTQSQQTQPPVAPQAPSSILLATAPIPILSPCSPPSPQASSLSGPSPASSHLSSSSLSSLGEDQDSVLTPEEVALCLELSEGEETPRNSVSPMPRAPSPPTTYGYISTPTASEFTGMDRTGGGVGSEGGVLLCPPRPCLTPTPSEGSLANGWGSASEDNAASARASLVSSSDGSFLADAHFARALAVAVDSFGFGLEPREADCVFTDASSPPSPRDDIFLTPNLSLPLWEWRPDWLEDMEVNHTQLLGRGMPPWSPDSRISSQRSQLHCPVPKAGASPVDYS
Description: flow cytometry, transfected HEK293 cells, 10 μg/mL.

B1: 抗ROBO4マウスモノクローナル抗体 MAb1 (antibody, V domains shown)
VH: EVQLVESGGGLVKPGGSLKLSCAASGFTFSTYAMSWVRQTPEKRLEWVATISNGGTYTYYPDSVKGRFTISRDNAENTLYLQMSSLRSEDTAMYFCARLIYYDYLDYWGHGTTLTVSS
VL: DAVMTQTPLSLPVSLGDQASISCRSSQSLENSNGNTYLNWYFQKPGQSPQLLIYRVSNRFSGVLDRFSGSGSGTDFTLKISRVEAEDFGVYFCLQVTHVPWTFGGGTKLEIKR
notes: Mouse IgG1 (gamma 1) / kappa from a hybridoma; The constant regions are not in the listing; also called MAb1
B1: the binding result is reported as “binds”.
